Columns and labels:
HeLa Kyoto [1] = experiment: solubility change mitosis vs G1/S (difference of NP-40 vs SDS log2 ratios) (log2 ratio difference); higher = more soluble in mitosis
HeLa Kyoto [2] = experiment: solubility in G1/S (NP-40 vs SDS abundance) (log2 ratio); higher = more soluble; details: cell cycle stage: G1/S
HeLa Kyoto [3] = experiment: melting temperature (median over replicates), in situ; higher = more thermally stable
HeLa Kyoto [4] = experiment: thermal stability score vs G1/S (z-score of summed log2 fold changes over temperatures); higher = more thermally stable than in G1/S
[5] = cell cycle stage: early G1 (4.5 h after nocodazole release)
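Wherever melting temperature (median over replicates), in situ is given: HeLa Kyoto cells synchronized by double thymidine or nocodazole block, proteins quantified by TMT10plex mass spectrometry, three independent biological replicates.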
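Wherever solubility change mitosis vs G1/S (difference of NP-40 vs SDS log2 ratios) is given: synchronized HeLa Kyoto cells (double thymidine block for G1/S, nocodazole release for mitosis), protein amounts in NP-40 versus SDS lysates quantified by mass spectrometry, three biological replicates.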
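Wherever solubility in G1/S (NP-40 vs SDS abundance) is given: HeLa Kyoto cells arrested at G1/S by double thymidine block, proteins quantified by TMT10plex mass spectrometry in mild NP-40 versus SDS extracts, three biological replicates.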
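Wherever thermal stability score vs G1/S (z-score of summed log2 fold changes over temperatures) is given: synchronized HeLa Kyoto cells, proteins quantified by TMT10plex mass spectrometry, three biological replicates, mitosis taken 0.5 h after nocodazole release, G1/S directly after double thymidine block.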

Sequence	solubility change mitosis (log2) (HeLa Kyoto [1])	solubility in G1/S (log2) (HeLa Kyoto [2])	melting temperature (HeLa Kyoto [3]; cell cycle stage: G1/S) [°C]	melting temperature (HeLa Kyoto [3]; cell cycle stage: mitosis) [°C]	thermal stability score (HeLa Kyoto [4]; [5])	thermal stability score (HeLa Kyoto [4]; cell cycle stage: mitosis)
MADGDSGSERGGGGGPCGFQPASRGGGEQETQELASKRLDIQNKRFYLDVKQNAKGRFLKIAEVGAGGSKSRLTLSMAVAAEFRDSLGDFIEHYAQLGPSSPEQLAAGAEEGGGPRRALKSEFLVRENRKYYLDLKENQRGRFLRIRQTVNRGGGGFGAGPGPGGLQSGQTIALPAQGLIEFRDALAKLIDDYGGEDDELAGGPGGGAGGPGGGLYGELPEGTSITVDSKRFFFDVGCNKYGVFLRVSEVKPSYRNAITVPFKAWGKFGGAFCRYADEMKEIQERQRDKLYERRGGGSGGGEESEGEEVDED [PURB]	0.0319	0.381	54.2	54.1	-1.12	-5.37
MADGGSERADGRIVKMEVDYSATVDQRLPECAKLAKEGRLQEVIETLLSLEKQTRTASDMVSTSRILVAVVKMCYEAKEWDLLNENIMLLSKRRSQLKQAVAKMVQQCCTYVEEITDLPIKLRLIDTLRMVTEGKIYVEIERARLTKTLATIKEQNGDVKEAASILQELQVETYGSMEKKERVEFILEQMRLCLAVKDYIRTQIISKKINTKFFQEENTEKLKLKYYNLMIQLDQHEGSYLSICKHYRAIYDTPCIQAESEKWQQALKSVVLYVILAPFDNEQSDLVHRISGDKKLEEIPKYKDLLKLFTTMELMRWSTLVEDYGMELRKGSLESPATDVFGSTEEGEKRWKDLKNRVVEHNIRIMAKYYTRITMKRMAQLLDLSVDESEAFLSNLVVNKTIFAKVDRLAGIINFQRPKDPNNLLNDWSQKLNSLMSLVNKTTHLIAKEEMIHNLQ [PSMD12]	-0.104	0.0925	52.3	51.6	2.61	2.56
MADHVQSLAQLENLCKQLYETTDTTTRLQAEKALVEFTNSPDCLSKCQLLLERGSSSYSQLLAATCLTKLVSRTNNPLPLEQRIDIRNYVLNYLATRPKLATFVTQALIQLYARITKLGWFDCQKDDYVFRNAITDVTRFLQDSVEYCIIGVTILSQLTNEINQADTTHPLTKHRKIASSFRDSSLFDIFTLSCNLLKQASGKNLNLNDESQHGLLMQLLKLTHNCLNFDFIGTSTDESSDDLCTVQIPTSWRSAFLDSSTLQLFFDLYHSIPPSFSPLVLSCLVQIASVRRSLFNNAERAKFLSHLVDGVKRILENPQSLSDPNNYHEFCRLLARLKSNYQLGELVKVENYPEVIRLIANFTVTSLQHWEFAPNSVHYLLSLWQRLAASVPYVKATEPHMLETYTPEVTKAYITSRLESVHIILRDGLEDPLEDTGLVQQQLDQLSTIGRCEYEKTCALLVQLFDQSAQSYQELLQSASASPMDIAVQEGRLTWLVYIIGAVIGGRVSFASTDEQDAMDGELVCRVLQLMNLTDSRLAQAGNEKLELAMLSFFEQFRKIYIGDQVQKSSKLYRRLSEVLGLNDETMVLSVFIGKIITNLKYWGRCEPITSKTLQLLNDLSIGYSSVRKLVKLSAVQFMLNNHTSEHFSFLGINNQSNLTDMRCRTTFYTALGRLLMVDLGEDEDQYEQFMLPLTAAFEAVAQMFSTNSFNEQEAKRTLVGLVRDLRGIAFAFNAKTSFMMLFEWIYPSYMPILQRAIELWYHDPACTTPVLKLMAELVHNRSQRLQFDVSSPNGILLFRETSKMITMYGNRILTLGEVPKDQVYALKLKGISICFSMLKAALSGSYVNFGVFRLYGDDALDNALQTFIKLLLSIPHSDLLDYPKLSQSYYSLLEVLTQDHMNFIASLEPHVIMYILSSISEGLTALDTMVCTGCCSCLDHIVTYLFKQLSRSTKKRTTPLNQESDRFLHIMQQHPEMIQQMLSTVLNIIIFEDCRNQWSMSRPLLGLILLNEKYFSDLRNSIVNSQPPEKQQAMHLCFENLMEGIERNLLTKNRDRFTQNLSAFRREVNDSMKNSTYGVNSNDMMS [XPO7]	-0.207	-0.0594	52.2	52.2	0.0845	0.043
MADKQISLPAKLINGGIAGLIGVTCVFPIDLAKTRLQNQQNGQRVYTSMSDCLIKTVRSEGYFGMYRGAAVNLTLVTPEKAIKLAANDFFRHQLSKDGQKLTLLKEMLAGCGAGTCQVIVTTPMEMLKIQLQDAGRIAAQRKILAAQGQLSAQGGAQPSVEAPAAPRPTATQLTRDLLRSRGIAGLYKGLGATLLRDVPFSVVYFPLFANLNQLGRPASEEKSPFYVSFLAGCVAGSAAAVAVNPCDVVKTRLQSLQRGVNEDTYSGILDCARKILRHEGPSAFLKGAYCRALVIAPLFGIAQVVYFLGIAESLLGLLQDPQA [SLC25A22]	-0.111	0.299	56.1	55.4	0.207	-1.95
MADKTPGGSQKASSKTRSSDVHSSGSSDAHMDASGPSDSDMPSRTRPKSPRKHNYRNESARESLCDSPHQNLSRPLLENKLKAFSIGKMSTAKRTLSKKEQEELKKKEDEKAAAEIYEEFLAAFEGSDGNKVKTFVRGGVVNAAKEEHETDEKRGKIYKPSSRFADQKNPPNQSSNERPPSLLVIETKKPPLKKGEKEKKKSNLELFKEELKQIQEERDERHKTKGRLSRFEPPQSDSDGQRRSMDAPSRRNRSSGVLDDYAPGSHDVGDPSTTNLYLGNINPQMNEEMLCQEFGRFGPLASVKIMWPRTDEERARERNCGFVAFMNRRDAERALKNLNGKMIMSFEMKLGWGKAVPIPPHPIYIPPSMMEHTLPPPPSGLPFNAQPRERLKNPNAPMLPPPKNKEDFEKTLSQAIVKVVIPTERNLLALIHRMIEFVVREGPMFEAMIMNREINNPMFRFLFENQTPAHVYYRWKLYSILQGDSPTKWRTEDFRMFKNGSFWRPPPLNPYLHGMSEEQETEAFVEEPSKKGALKEEQRDKLEEILRGLTPRKNDIGDAMVFCLNNAEAAEEIVDCITESLSILKTPLPKKIARLYLVSDVLYNSSAKVANASYYRKFFETKLCQIFSDLNATYRTIQGHLQSENFKQRVMTCFRAWEDWAIYPEPFLIKLQNIFLGLVNIIEEKETEDVPDDLDGAPIEEELDGAPLEDVDGIPIDATPIDDLDGVPIKSLDDDLDGVPLDATEDSKKNEPIFKVAPSKWEAVDESELEAQAVTTSKWELFDQHEESEEEENQNQEEESEDEEDTQSSKSEEHHLYSNPIKEEMTESKFSKYSEMSEEKRAKLREIELKVMKFQDELESGKRPKKPGQSFQEQVEHYRDKLLQREKEKELERERERDKKDKEKLESRSKDKKEKDECTPTRKERKRRHSTSPSPSRSSSGRRVKSPSPKSERSERSERSHKESSRSRSSHKDSPRDVSKKAKRSPSGSRTPKRSRRSRSRSPKKSGKKSRSQSRSPHRSHKKSKKNKH [U2SURP]	0.526	-0.673	47.9	49.5	1.49	6.77
